Measured values: patent US20250161473A1 (GAN AND LEE PHARMACEUTICALS, published 2025)
Values belong to the binder of their own block, whether it stands above or below them.

Experiments:
[1] = biological target: T1, TROP-2-his (UniProt P09758 27-274); assay: SPR (Biacore), antibody captured on Protein A chip, TROP-2-his flowed over, 1:1 Langmuir fit
T1 construct: also called antigen TROP-2-his; not shown: his tag
T1 sequence (looked up): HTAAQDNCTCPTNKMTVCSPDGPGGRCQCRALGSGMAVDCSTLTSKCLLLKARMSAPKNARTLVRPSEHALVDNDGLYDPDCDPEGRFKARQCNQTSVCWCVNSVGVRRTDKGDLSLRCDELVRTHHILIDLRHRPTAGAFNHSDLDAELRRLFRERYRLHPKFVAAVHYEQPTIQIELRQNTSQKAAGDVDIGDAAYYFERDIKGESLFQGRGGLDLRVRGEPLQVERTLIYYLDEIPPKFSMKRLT
Excerpt: (§1) In this test example, the affinity of the TROP-2 antibody and the TROP-2-ADC compound obtained according to the above examples to TROP-2 is detected by means of capturing antibody.
(§2) Use the Sensor Chip Protein A biosensor chip (Cytiva) to capture the antibody (TROP-2 antibody or TROP-2-ADC compound), then flow through the antigen TROP-2-his on the surface of the chip, and use the Biacore K8 instrument (Cytiva) Real-time detection of reaction signals to obtain association and dissociation curves. After the dissociation of each experiment cycle, the chip was washed and regenerated with regeneration buffer. After the experiment, GE Biacore K8 Evaluation version 3.0 software was used to fit the data with the (1:1) Langmuir model to obtain the affinity value.

[2] = biological target: T1, TROP-2-his; assay: SPR (Biacore), ADC captured on Protein A chip, TROP-2-his flowed over, 1:1 Langmuir fit
Excerpt: as §1, §2

[3] = biological target: T2, human HER3-His antigen (human, UniProt P21860 20-643); assay: SPR (Biacore 8K), antibody captured on Protein A chip, HER3-His at 0.625-40 nM as analyte
T2 construct: not shown: His tag
Description: (§3) The binding ability of naked antibody, HER3-ADC-19, HER3-ADC-20, HER3-ADC-21 to human HER3-His antigen was determined at 7 different concentrations (0.625-40 nM) using protein A biosensor chip.

[4] = biological target: T2, human HER3-His antigen; assay: SPR (Biacore 8K), ADC captured on Protein A chip, HER3-His at 0.625-40 nM as analyte
Description: as §3

Kd [2]: 319 pM
B3: TROP-2-ADC-19 (antibody, human IgG1, kappa, V domains shown)
VH: QVQLQQSGSELKKPGASVKVSCKASGYTFTNYGMNWVKQAPGQGLKWMGWINTYTGEPTYTDDFKGRFAFSLDTSVSTAYLQISSLKADDTAVYFCARGGFGSSYWYFDVWGQGSLVTVSS
VL: DIQLTQSPSSLSASVGDRVSITCKASQDVSIAVAWYQQKPGKAPKLLIYSASYRYTGVPDRFSGSGSGTDFTLTISSLQPEDFAVYYCQQHYITPLTFGAGTKVEIKR
modifications: drug-linker compound 66 coupled to cysteines of the reduced interchain disulfide bonds; positions not given; drug-linker compound 66 (maleimide linker, exatecan derivative) coupled to cysteines of the reduced interchain disulfide bonds; positions not given; DAR 4.65 for the whole antibody

Kd [2]: 293 pM
B5: TROP-2-ADC-4 (antibody, human IgG1, kappa, V domains shown)
VH: QVQLQQSGSELKKPGASVKVSCKASGYTFTNYGMNWVKQAPGQGLKWMGWINTYTGEPTYTDDFKGRFAFSLDTSVSTAYLQISSLKADDTAVYFCARGGFGSSYWYFDVWGQGSLVTVSS
VL: DIQLTQSPSSLSASVGDRVSITCKASQDVSIAVAWYQQKPGKAPKLLIYSASYRYTGVPDRFSGSGSGTDFTLTISSLQPEDFAVYYCQQHYITPLTFGAGTKVEIKR
modifications: drug-linker compound 51 coupled to cysteines of the reduced interchain disulfide bonds; positions not given; drug-linker compound 51 (maleimide linker, exatecan derivative) coupled to cysteines of the reduced interchain disulfide bonds; positions not given; DAR 8.49 for the whole antibody

Kd [2]: 276 pM
B6: TROP-2-ADC-3 (antibody, human IgG1, kappa, V domains shown)
VH: QVQLQQSGSELKKPGASVKVSCKASGYTFTNYGMNWVKQAPGQGLKWMGWINTYTGEPTYTDDFKGRFAFSLDTSVSTAYLQISSLKADDTAVYFCARGGFGSSYWYFDVWGQGSLVTVSS
VL: DIQLTQSPSSLSASVGDRVSITCKASQDVSIAVAWYQQKPGKAPKLLIYSASYRYTGVPDRFSGSGSGTDFTLTISSLQPEDFAVYYCQQHYITPLTFGAGTKVEIKR
modifications: drug-linker compound 50 coupled to cysteines of the reduced interchain disulfide bonds; positions not given; drug-linker compound 50 (maleimide linker, exatecan derivative) coupled to cysteines of the reduced interchain disulfide bonds; positions not given; DAR 14.74 for the whole antibody

Kd [3]: 1410 pM | koff [3]: 0.000363 s⁻¹ | kon [3]: 257000 M⁻¹ s⁻¹
B7: anti-human HER3 monoclonal antibody (antibody, human IgG1, kappa, V domains shown)
VH: QVQLQQWGAGLLKPSETLSLTCAVYGGSFSGYYWSWIRQPPGKGLEWIGEINHSGSTNYNPSLKSRVTISVETSKNQFSLKLSSVTAADTAVYYCARDKWTWYFDLWGRGTLVTVSS
VL: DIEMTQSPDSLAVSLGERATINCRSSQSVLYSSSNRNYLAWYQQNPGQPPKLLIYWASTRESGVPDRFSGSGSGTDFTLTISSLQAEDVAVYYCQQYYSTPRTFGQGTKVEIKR
notes: also called Naked antibody; HER3 antibody

The next lines start with the binder.

B1: anti-human TROP-2 monoclonal antibody (anti-hRS7 antibody) (antibody, human IgG1, kappa, V domains shown)
VH: QVQLQQSGSELKKPGASVKVSCKASGYTFTNYGMNWVKQAPGQGLKWMGWINTYTGEPTYTDDFKGRFAFSLDTSVSTAYLQISSLKADDTAVYFCARGGFGSSYWYFDVWGQGSLVTVSS
VL: DIQLTQSPSSLSASVGDRVSITCKASQDVSIAVAWYQQKPGKAPKLLIYSASYRYTGVPDRFSGSGSGTDFTLTISSLQPEDFAVYYCQQHYITPLTFGAGTKVEIKR
notes: also called Naked antibody (anti-TROP-2 monoclonal antibody); TROP-2 antibody
Kd [1]: 318 pM

B2: TROP-2-ADC-21 (antibody, human IgG1, kappa, V domains shown)
VH: QVQLQQSGSELKKPGASVKVSCKASGYTFTNYGMNWVKQAPGQGLKWMGWINTYTGEPTYTDDFKGRFAFSLDTSVSTAYLQISSLKADDTAVYFCARGGFGSSYWYFDVWGQGSLVTVSS
VL: DIQLTQSPSSLSASVGDRVSITCKASQDVSIAVAWYQQKPGKAPKLLIYSASYRYTGVPDRFSGSGSGTDFTLTISSLQPEDFAVYYCQQHYITPLTFGAGTKVEIKR
modifications: drug-linker compound 68 coupled to cysteines of the reduced interchain disulfide bonds; positions not given; drug-linker compound 68 (maleimide linker, exatecan derivative) coupled to cysteines of the reduced interchain disulfide bonds; positions not given; DAR 4.78 for the whole antibody
Kd [2]: 275 pM

B4: TROP-2-ADC-23 (antibody, human IgG1, kappa, V domains shown)
VH: QVQLQQSGSELKKPGASVKVSCKASGYTFTNYGMNWVKQAPGQGLKWMGWINTYTGEPTYTDDFKGRFAFSLDTSVSTAYLQISSLKADDTAVYFCARGGFGSSYWYFDVWGQGSLVTVSS
VL: DIQLTQSPSSLSASVGDRVSITCKASQDVSIAVAWYQQKPGKAPKLLIYSASYRYTGVPDRFSGSGSGTDFTLTISSLQPEDFAVYYCQQHYITPLTFGAGTKVEIKR
modifications: drug-linker compound 70 coupled to cysteines of the reduced interchain disulfide bonds; positions not given; drug-linker compound 70 (maleimide linker, exatecan derivative) coupled to cysteines of the reduced interchain disulfide bonds; positions not given; DAR 6.42 for the whole antibody
Kd [2]: 262 pM

B8: HER3-ADC-21 (antibody, human IgG1, kappa, V domains shown)
VH: QVQLQQWGAGLLKPSETLSLTCAVYGGSFSGYYWSWIRQPPGKGLEWIGEINHSGSTNYNPSLKSRVTISVETSKNQFSLKLSSVTAADTAVYYCARDKWTWYFDLWGRGTLVTVSS
VL: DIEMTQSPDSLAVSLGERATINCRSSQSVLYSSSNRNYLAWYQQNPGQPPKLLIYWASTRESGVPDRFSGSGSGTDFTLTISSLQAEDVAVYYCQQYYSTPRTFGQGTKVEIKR
modifications: drug-linker compound 68 coupled to cysteines of the reduced interchain disulfide bonds; positions not given; drug-linker compound 68 (maleimide linker, exatecan derivative) coupled to cysteines of the reduced interchain disulfide bonds; positions not given; DAR 8.00 for the whole antibody
Kd [4]: 2080 pM | koff [4]: 0.000451 s⁻¹ | kon [4]: 217000 M⁻¹ s⁻¹
